This note sets out measurements from paper PMC2173288 (The Journal of Cell Biology, 2002).

For one assay, the target named is Glo3p (UniProt P38682 1-493). Briefly: pull-down.
For another assay, the target named is Sar1p (UniProt P20606 1-190). Briefly: pull-down.
Chain of Sar1p (P20606 whole entry): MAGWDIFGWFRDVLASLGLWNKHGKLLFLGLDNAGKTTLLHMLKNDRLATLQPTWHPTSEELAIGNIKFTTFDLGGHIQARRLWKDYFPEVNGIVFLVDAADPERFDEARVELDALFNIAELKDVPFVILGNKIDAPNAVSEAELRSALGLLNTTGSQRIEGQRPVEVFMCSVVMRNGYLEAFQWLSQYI

Chain of Glo3p (P38682 whole entry): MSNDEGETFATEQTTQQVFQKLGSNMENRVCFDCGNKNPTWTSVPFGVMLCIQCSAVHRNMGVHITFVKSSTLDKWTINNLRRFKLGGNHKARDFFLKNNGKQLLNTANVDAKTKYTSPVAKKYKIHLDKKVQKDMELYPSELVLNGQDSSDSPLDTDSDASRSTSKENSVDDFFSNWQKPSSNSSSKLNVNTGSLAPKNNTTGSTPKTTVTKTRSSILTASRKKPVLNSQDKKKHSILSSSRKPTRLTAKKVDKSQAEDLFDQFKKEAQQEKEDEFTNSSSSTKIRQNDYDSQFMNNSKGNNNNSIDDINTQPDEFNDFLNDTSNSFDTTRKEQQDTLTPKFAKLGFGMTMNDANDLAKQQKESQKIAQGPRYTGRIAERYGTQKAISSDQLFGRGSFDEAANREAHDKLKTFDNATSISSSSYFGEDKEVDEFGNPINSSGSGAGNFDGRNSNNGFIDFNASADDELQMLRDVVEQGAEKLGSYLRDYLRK

B1: Bet1p-(41–119) (domain or fragment)
chain: TDKLDYSQSTLASLESQSEEQMGAMGQRIKALKSLSLKMGDEIRGSNQTIDQLGDTFHNTSVKLKRTFGNMMEMARRSG
B1: in the assay with Glo3p, the binding result is listed as “binds”.

B2: Bet1p-GST (domain or fragment)
chain: MSSRFAGGNAYQRDTGRTQLFGPADGSNSLDDNVSSALGSTDKLDYSQSTLASLESQSEEQMGAMGQRIKALKSLSLKMGDEIRGSNQTIDQLGDTFHNTSVKLKRTFGNMMEMARRSG
Turning to B2, the binding result in the assay with Sar1p is “binds”.
